By Kd is commonly meant a measure of binding affinity in units of concentration.

The target in experiment [1] is T1, Recombinant PCNA (proliferating cell nuclear antigen) (human, UniProt P12004 1-261). Briefly: SPR; 1000 nM caPep. For orientation: Surface plasmon resonance follows binding to a sensor surface in real time, without labels.
In experiment [2] the target is T1, Recombinant PCNA (proliferating cell …). Briefly: SPR; 0 nM caPep.
The target is the same in experiment [3]. Nature of the experiment: SPR; 500 nM caPep.

T1 sequence (P12004 whole entry): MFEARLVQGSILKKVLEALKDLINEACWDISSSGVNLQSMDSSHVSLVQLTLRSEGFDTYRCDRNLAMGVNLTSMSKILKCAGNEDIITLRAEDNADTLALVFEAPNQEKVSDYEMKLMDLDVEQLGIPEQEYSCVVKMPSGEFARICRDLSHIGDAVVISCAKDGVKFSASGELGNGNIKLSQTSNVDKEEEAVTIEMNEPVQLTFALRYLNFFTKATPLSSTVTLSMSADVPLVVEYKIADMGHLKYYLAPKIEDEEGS

B1: FEN1 peptide containing the PIP-box (peptide)
peptide: SKSRQGSTQGRLDDFF
As for B1, the Kd was found to be 250 µM in experiment [1], 0.0846 µM in experiment [2] and 3.33 µM in experiment [3].

The record behind these values is publication PMC3984256 (2014).
